For test [1], the target named is T1, DOS+SSB P>L (DOS+SSB with the proline to leucine mutation at amino acid 1718), epitope tagged (human, UniProt Q8N1I0 1-1966).
T1 construct: Used as lysate of transfected cells; also called DOS+SSB with proline mutation; DOS with the proline mutation
Description: GST pull-down, lysate in SDS containing RIPA buffer. The method, then: (§1) In transient expression studies, with epitope tagged DOS constructs in both 293T cell and COS cells, a protein of the expected size is readily detected after cell lysis with buffers containing detergents, such as RIPA.
(§2) After incubating epitope tagged DOS lysates in SDS containing RIPA buffer with beads carrying GST-Crk-N terminal SH3 domain, DOS+SSB and DOS−SSB was “pulled down”. […] No binding to DOS−SSB was observed. […] The proline rich, C terminus of DOS engages with Src and Crk and the loss of Crk binding is seen in human cancer. Furthermore, no binding to SH3 domain of Abl and Crk-C terminus was observed.

Test [2] addresses T2, DOS+SSB (human DOS protein of 1966 amino acids, with Src SH3 domain binding site), epitope tagged (human, UniProt Q8N1I0 1-1966).
T2 construct: Full-length isoform cloned in pcDNA3.1, transiently expressed in 293T or COS cells and used as cell lysate in RIPA buffer; also called DOCK 3; Deleted in Osteosarcoma
Briefly: pull-down with SH3 domains. The method, then: as §1, §2

The target of test [3] is GST-Src SH3 domain (UniProt P12931 84-145). Description: GST pull-down, lysate in SDS containing RIPA buffer. As to the method: as §1, §2

B1: GST-Crk-N terminal SH3 domain (other, UniProt P46108 132-192, looked up)
chain: EEAEYVRALFDFNGNDEEDLPFKKGDILRIRDKPEEQWWNAEDSEGKRGMIPVPYVEKYRP
notes: domain: N terminal SH3 domain; GST fusion on beads for the pull-down; also called adaptor protein Crk; not shown: glutathione S-transferase (GST) fusion partner
As to B1, the binding result in test [1] is recorded as “no binding”.

B2: SH3 domain of Crk-C terminus (other, UniProt P46108 235-296, looked up)
chain: NGPIYARVIQKRVPNAYDKTALALEVGELVKVTKINVSGQWEGECNGKRGHFPFTHVRLLDQ
notes: domain: SH3 domain of Crk-C terminus
B2: the binding result in test [2] is listed as “no binding”.

B3: DOS-SSB (alternatively spliced human DOS protein of 1928 amino acids, without Src SH3 domain binding site), epitope tagged (other, not shown: small tags and cut ends)
chain: MWIPTEHEKYGVVIASFRGTVPYGLSLEIGDTVQILEKCDGWYRGFALKNPNIKGIFPSSYVHLKNACVKNKGQFEMVIPTEDSVITEMTSTLRDWGTMWKQLYVRNEGDLFHRLWHIMNEILDLRRQVLVGHLTHDRMKDVKRHITARLDWGNEQLGLDLVPRKEYAMVDPEDISITELYRLMEHRHRKKDTPVQASSHHLFVQMKSLMCSNLGEELEVIFSLFDSKENRPISERFFLRLNRNGLPKAPDKPERHCSLFVDLGSSELRKDIYITVHIIRIGRMGAGEKKNACSVQYRRPFGCAVLSIADLLTGETKDDLILKVYMCNTESEWYQIHENIIKKLNARYNLTGSNAGLAVSLQLLHGDIEQIRREYSSVFSHGVSITRKLGFSNIIMPGEMRNDLYITIERGEFEKGGKSVARNVEVTMFIVDSSGQTLKDFISFGSGEPPASEYHSFVLYHNNSPRWSELLKLPIPVDKFRGAHIRFEFRHCSTKEKGEKKLFGFSFVPLMQEDGRTLPDGTHELIVHKCEENTNLQDTTRYLKLPFSKGIFLGNNNQAMKATKESFCITSFLCSTKLTQNGDMLDLLKWRTHPDKITGCLSKLKEIDGSEIVKFLQDTLDTLFGILDENSQKYGSKVFDSLVHIINLLQDSKFHHFKPVMDTYIESHFAGALAYRDLIKVLKWYVDRITEAERQEHIQEVLKAQEYIFKYIVQSRRLFSLATGGQNEEEFRCCIQELLMSVRFFLSQESKGSGALSQSQAVFLSSFPAVYSELLKLFDVREVANLVQDTLGSLPTILHVDDSLQAIKLQCIGKTVESQLYTNPDSRYILLPVVLHHLHIHLQEQKDLIMCARILSNVFCLIKKNSSEKSVLEEIDVIVASLLDILLRTILEITSRPQPSSSAMRFQFQDVTGEFVACLLSLLRQMTDRHYQQLLDSFNTKEELRDFLLQIFTVFRILIRPEMFPKDWTVMRLVANNVIITTVLYLSDALRKNFLNENFDYKIWDSYFYLAVIFINQLCLQLEMFTPSKKKKVLEKYGDMRVTMGCEIFSMWQNLGEHKLHFIPALIGPFLEVTLIPQPGLRNVMIPIFHDMMDWEQRRSGNFKQVEAKLIDKLDSLMSEGKGDETYRELFNSILLKKIERETWRESGVSLIATVTRLMERLLDYRDCMKMGEVDGKKIGCTVSLLNFYKTELNKEEMYIRYIHKLYDLHLKAQNFTEAAYTLLLYDELLEWSDRPLREFLTYPMQTEWQRKEHLHLTIIQNFDRGKCWENGIILCRKIAEQYESYYDYRNLSKMRMMEASLYDKIMDQQRLEPEFFRVGFYGKKFPFFLRNKEFVCRGHDYERLEAFQQRMLNEFPHAIAMQHANQPDETIFQAEAQYLQIYAVTPIPESQEVLQREGVPDNIKSFYKVNHIWKFRYDRPFHKGTKDKENEFKSLWVERTSLYLVQSLPGISRWFEVEKREVVEMSPLENAIEVLENKNQQLKTLISQCQTRQMQNINPLTMCLNGVIDAAVNGGVSRYQEAFFVKEYILSHPEDGEKIARLRELMLEQAQILEFGLAVHEKFVPQDMRPLHKKLVDQFFVMKSSLGIQEFSACMQASPVHFPNGSPRVCRNSAPASVSPDGTRVIPRRSPLSYPAVNRYSSSSLSSQASAEVSNITGQSESSDEVFNMQPSPSTSSLSSTHSASPNVTSSAPSSARASPLLSDKHKHSRENSCLSPRERPCSAIYPTPVEPSQRMLFNHIGDGALPRSDPNLSAPEKASPARHTTSVSPSPAGRSPLKGSVQSFTPSPVEYHSPGLISNSPVLSGSYSSGISSLSRCSTSETSGFENQVNEQSAPLPVPVPVPVPSYGGEEPVRKESKTPPPYSVYERTLRRPVPLPHSLSIPVTSEPPALPPKPLAARSSHLENGARRTDPGPRPRPLPRKVSQL
notes: Used as lysate of transfected cells
Take B3: the binding result in test [3] is “no binding”.
